# Experimental data from patent publication US20120184020A1, “ENGINEERED MICROORGANISMS WITH ENHANCED FERMENTATION ACTIVITY” (Verdezyne, Inc., priority 2009, published 2012).
# Substitutions are numbered along the chain they refer to. Names may count otherwise.
# B1: Mutant 13: S. cerevisiae ZWF1 site-directed mutant A24G/A51D (protein, UniProt P11412 2-505, looked up, variant A24G A51D)
# Glucose-6-phosphate …: SEGPVKFEKNTVISVFGASGDLGKKKTFPALFGLFREGYLDPSTKIFGYDRSKLSMEEDLKSRVLPHLKKPHGEADDSKVEQFFKMVSYISGNYDTDEGFDELRTQIEKFEKSANVDVPHRLFYLALPPSVFLTVAKQIKSRVYAENGITRVIVEKPFGHDLASARELQKNLGPLFKEEELYRIDHYLGKELVKNLLVLRFGNQFLNASWNRDNIQSVQISFKERFGTEGRGGYFDSIGIIRDVMQNHLLQIMTLLTMERPVSFDPESIRDEKVKVLKAVAPIDTDDVLLGQYGKSEDGSKPAYVDDDTVDKDSKCVTFAAMTFNIENERWEGVPIMMRAGKALNESKVEIRLQYKAVASGVFKDIPNNELVIRVQPDAAVYLKFNAKTPGLSNATQVTDLNLTYASRYQDFWIPEAYEVLIRDALLGDHSNFVRDDELDISWGIFTPLLKHIERPDGPTPEIYPYGSRGPKGLKEYMQKHKYVMPEKHPYAWPVTKPEDTKDN
# B2: Codon-optimized EDA from P. aeruginosa: codon-optimized version of the P. aeruginosa EDA gene (protein, UniProt O68283 1-220, looked up)
# 2-dehydro-3-deoxy-phosphogluco …: MHNLEQKTARIDTLCREARILPVITIDREADILPMADALAAGGLTALEITLRTAHGLTAIRRLSEERPHLRIGAGTVLDPRTFAAAEKAGASFVVTPGCTDELLRFALDSEVPLLPGVASASEIMLAYRHGYRRFKLFPAEVSGGPAALKAFSGPFPDIRFCPTGGVSLNNLADYLAVPNVMCVGGTWMLPKAVVDRGDWAQVERLSREALERFAEHRRH
# modifications: codon-optimized gene
# B3: R. flavefaciens, FD-1 XI: xylose isomerase of Ruminococcus flavefaciens FD1, ZP_06143883.1, SEQ ID NO: 110 (protein, listed as Ruminococcus flavefaciens)
# chain: MEFFKNISKIPYEGKDSTNPLAFKYYNPDEVIDGKKMRDIMKFALSWWHTMGGDGTDMFGCGTADKTWGENDPAARAKAKVDAAFEIMQKLSIDYFCFHDRDLSPEYGSLKDTNAQLDIVTDYIKAKQAETGLKCLWGTAKCFDHPRFMHGAGTSPSADVFAFSAAQIKKALESTVKLGGTGYVFWGGREGYETLLNTNMGLELDNMARLMKMAVEYGRSIGFKGDFYIEPKPKEPTKHQYDFDTATVLGFLRKYGLDKDFKMNIEANHATLAQHTFQHELCVARTNGAFGSIDANQGDPLLGWDTDQFPTNIYDTTMCMYEVIKAGGFTNGGLNFDAKARRGSFTPEDIFYSYIAGMDAFALGYKAASKLIADGRIDSFISDRYASWSEGIGLDIISGKADMAALEKYALEKGEVTDSISSGRQELLESIVNNVIFNL
# B4: XI-Rp5: chimera: first 5 amino acids of Piromyces xylose isomerase followed by Ruminococcus xylose isomerase, SEQ ID NO. 56 (protein)
# chain: MAKEYFSNIGKIQYQGPKSTDPLSFKYYNPEEVINGKTMREHLKFALSWWHTMGGDGTDMFGCGTTDKTWGQSDPAARAKAKVDAAFEIMDKLSIDYYCFHDRDLSPEYGSLKATNDQLDIVTDYIKEKQGDKFKCLWGTAKCFDHPRFMHGAGTSPSADVFAFSAAQIKKALESTVKLGGNGYVFWGGREGYETLLNTNMGLELDNMARLMKMAVEYGRSIGFKGDFYIEPKPKEPTKHQYDFDTATVLGFLRKYGLDKDFKMNIEANHATLAQHTFQHELRVARDNGVFGSIDANQGDVLLGWDTDQFPTNIYDTTMCMYEVIKAGGFTNGGLNFDAKARRGSFTPEDIFYSYIAGMDAFALGFRAALKLIEDGRIDKFVADRYASWNTGIGADIIAGKADFASLEKYALEKGEVTASLSSGRQEMLESIVNNVLFSL
# B5: XI-Rp10: chimera: first 10 amino acids of Piromyces xylose isomerase then amino acids 11 to 438 of Ruminococcus enzyme, SEQ ID NO. 58 (protein)
# chain: MAKEYFPQIQQYQGPKSTDPLSFKYYNPEEVINGKTMREHLKFALSWWHTMGGDGTDMFGCGTTDKTWGQSDPAARAKAKVDAAFEIMDKLSIDYYCFHDRDLSPEYGSLKATNDQLDIVTDYIKEKQGDKFKCLWGTAKCFDHPRFMHGAGTSPSADVFAFSAAQIKKALESTVKLGGNGYVFWGGREGYETLLNTNMGLELDNMARLMKMAVEYGRSIGFKGDFYIEPKPKEPTKHQYDFDTATVLGFLRKYGLDKDFKMNIEANHATLAQHTFQHELRVARDNGVFGSIDANQGDVLLGWDTDQFPTNIYDTTMCMYEVIKAGGFTNGGLNFDAKARRGSFTPEDIFYSYIAGMDAFALGFRAALKLIEDGRIDKFVADRYASWNTGIGADIIAGKADFASLEKYALEKGEVTASLSSGRQEMLESIVNNVLFSL
# B6: XI-Rp15: chimera: first 15 amino acids of Piromyces xylose isomerase then amino acids 16 to 438 of Ruminococcus enzyme, SEQ ID NO. 60 (protein)
# chain: B5 chain with Q11K, Y12I, Q13K, G14F, P15E
# Columns and labels:
# [1] = Xylose isomerase activity/kinetic assay on soluble whole cell extract (sorbitol dehydrogenase coupled, NADH, A340); format: biochemical; settings: for Km: xylose 40-500 mM
# Protocol: […] Louis, Mo.), and about 2 U sorbitol dehydrogenase (Roche) at about 30° C. […] A Beckman DU-800 was utilized with an Enzyme Mechanism software package (Beckman Coulter, Inc.), and the change in the A340 was monitored for 2-3 minutes.
# […] Louis, Mo.), and 2 U Sorbitol Dehydrogenase (SDH) (Roche, Indianapolis, Ind.) at about 30° C. […] A Beckman DU-800 spectrophotometer was utilized with an Enzyme Mechanism software package (Beckman Coulter, Inc, Brea, Calif.), and the change in the A340 was monitored for 2-3 minutes.
# […] Louis, Mo.), and 2 U sorbitol dehydrogenase (SDH) (Roche, Indianapolis, Ind.) at about 30° C. […] A Beckman DU-800 spectrophotometer was utilized with an Enzyme Mechanism software package (Beckman Coulter, Inc, Brea, Calif.), and the change in the A340 was monitored for 2-3 minutes.
# Approximately 20 μg of soluble whole cell extract from each transformed cell line was prepared using Y-PER plus reagent as described above was incubated in a solution containing about 100 mM Tris, pH 7.5, 10 mM MgCl ? 2, 0.15 mM NADH (Sigma, St. Louis, Mo.), and 2 U Sorbitol Dehydrogenase (SDH) (Roche, Indianapolis, Ind.) at about 30° C. […] A Beckman DU-800 spectrophotometer was utilized with an Enzyme Mechanism software package (Beckman Coulter, Inc, Brea, Calif.), and the change in the A340 was monitored for 2-3 minutes.
# [2] = tested on: engineered yeast (S. cerevisiae); assay: Heterologous xylose isomerase expression in yeast (active yes/no); format: cell-based; settings: xylose isomerase of donor organism expressed in engineered yeast (S. cerevisiae)
# [3] = ZWF1 (glucose-6-phosphate dehydrogenase) kinetic assay on crude extract with NADP+ or NAD+; format: biochemical
# Protocol: Strain BY4742 zwf1 (ATCC Cat. No. 4011971; Winzeler E A, et al. Science 285: 901-906, 1999. PubMed: 10436161) was used as the base strain for all ZWF1 assays. The assays were performed as follows: A 5 ml overnight of the strain expressing the ZWF1 gene was grown in SCD-ura. A 50 ml culture of the strain was then grown for about 18 hours from an initial OD600 of about 0.2 until it had reached about OD600 of about 4. The cells were centrifuged at 1046×g washed twice with 25 ml cold sterile water, and resuspended in 2 ml/g Yper Plus (Thermo Scientific) plus 1×protease inhibitors (EDTA-free). The cells were allowed to lyse at room temperature for about 30 minutes with constant rotation of the tubes. The lysate was centrifuged at 16,100×g for 10 minutes at 4° C. and the supernatants were transferred to a new 1.5 ml microcentrifuge tube. Quantification of the lysates was performed using the Coomassie-Plus kit (Thermo Scientific, San Diego, Calif.) as directed by the manufacturer.
# The reaction was started with 20 mM glucose-6-phosphate and the reaction was monitored at A340. The specific activity was measured as the μmol substrate/min/mg protein.
# [4] = EDA activity assay: S. cerevisiae EDA extracts with saturating E. coli EDD extract (LDH coupled, NADH); format: biochemical; settings: EDAs expressed in S. cerevisiae, saturating E. coli EDD extract
# Protocol: EDA genes isolated from a variety of sources were expressed in yeast and evaluated independently of EDA activity, to identify EDA activities suitable of inclusion in an engineered yeast strain. […] The activity of integrated EDAs in Thermosacc-Gold haploids, were also evaluated in this manner.
# EDD extractions (adapted from Chemyan et al, Protein Science 16:2368-2377, 2007): • 1) Pellet cells in 50 ml conical tubes, 4° C., 3,000 rpm, 10 mins, discard supernatant. • 2) Resuspend in 2 ml degassed PDGH buffer (20 mM MES pH 6.5, 30 mM NaCl, 5 mM MnCl2, 0.5 mM FeCl2, 10 mM 2-mercaptoethanol, 10 mM cysteine, sparged with nitrogen gas). Move to hungate tube. • 3) Add 0.1% Triton X-100, 10 ng/ml DNase, 10 μg/ml PMSF, 10 μg/ml TAME (Na-(p-toluene sulfonyl)-L-arginine methyl ester), 100 μg/ml lysozyme. • 4) Sparge hungate tube with nitrogen gas, cap and seal. Incubate 2 hours at 37° C., swirl occasionally. • 5) Clarify by centrifugation in 2-ml tube, 4° C., 10 mins, 14,000 rpm. Keep supernatant. • 6) Treat with 150 mM pyruvate and 10 mM sodium cyanoborohydride (work in hood) to inactivate aldolase activity. Incubate 30 mins at room temperature. • 7) During incubation, pre-equilibrate PD-10 column from GE • a. Remove top cap, pour off storage buffer. • b. Cut off bottom tip, fit in 50 ml conical with adapter. • c. Pour 5 ml of 20 mM MES buffer, pH 6.5 (total of 5 times). Discard flow-through. • 8) Run sample through column, then add MES buffer to a total of 2.5 ml volume added. Discard flow-through. • 9) Run 3.5 ml 20 mM MES pH 6.5 buffer to elute protein. Discard column in appropriate waste receptacle. • 10) Perform Bradford assay (1:10 or 1:20 dilution).
# • 1) Spin down in 50 ml conicals, 4° C., 3,400 rpm, 5 mins. […]
# Each reaction contains 50 mM Tris-HCl, pH 7, 10 mM MgCl2, 0.15 mM NADH, 15 μg LDH, saturating amounts of EDD determined empirically (usually −100 μg), 1-50 μg EDA (depending on level of activity), and 1 mM 6-phosphogluconate. Reactions are started by the addition of 6-phosphogluconate and monitored for 5 mins at 30° C.
molecule,measurement,setting,value
"Piromyces xylose isomerase: xylose isomerase from Piromyces strain E2, SEQ ID NO. 35 [reference compound]",Specific Activity,"[1]; soluble whole cell extract, about 30° C.",2.02 µmol/min/mg
same,Active? (yes/no),[2],Yes
B1,NAD+ usage,"[3]; initial kinetic screening of S. cerevisiae ZWF1 (zwf1_sc) mutants, preliminary cofactor phenotype, NAD+ as cofactor",Yes
same,NADP+ usage,"[3]; initial kinetic screening of S. cerevisiae ZWF1 (zwf1_sc) mutants, preliminary cofactor phenotype, NADP+ as cofactor",No
same,cofactor utilization (NAD+ / NADP+),[3]; initial kinetic screening of S. cerevisiae ZWF1 mutants,enabled NAD+ utilization with concomitant loss of NADP+ utilization
B2,EDA activity compared (in words),[4],slight improvement over the native sequence
B3,activity (slope) at saturating xylose (FIG. 25),"[1]; 500 mM xylose, 100 μg total soluble crude extract, expressed in S. cerevisiae",highest activity of the candidates tested
same,specific activity relative to native XI control activity,[1]; xylose concentrations between 40 and 500 nM (so in the source),greater than 2 fold
B4,Specific Activity,[1]; chimeric variants,1.45 µmol/min/mg
same,Km,[1]; chimeric variants,66.5 mM
B5,Specific Activity,[1]; chimeric variants,2.10 µmol/min/mg
same,Km,[1]; chimeric variants,75.8 mM
B6,Specific Activity,[1]; chimeric variants,1.53 µmol/min/mg
same,Km,[1]; chimeric variants,49.3 mM
